Experimental data: patent US20110231942A1

Target: Wnt3a
Test: cell-based or functional assay

decrease in Wnt3a acylation (metabolic labeling with az-15 and 35S-Met/Cys, click chemistry with ALK-Rho on immunoprecipitated Wnt3a): 31%
Substance: Human Tiki2 (from UniProt A6NFA1 20-486) (enzyme)
